Measurements taken from patent US12577571B2, “Mutant DNase1L3 with improved serum half-life” (Texas Tech University System, priority 2019, dated 2026).

B1: PEGylated Dnase1L3: Purified Dnase1L3 conjugated to PEG (PEG-maleimide); band shifts from 36 kDa to 41 kDa (conjugate, UniProt Q13609 21-305, looked up)
Deoxyribonuclease gamma: MRICSFNVRSFGESKQEDKNAMDVIVKVIKRCDIILVMEIKDSNNRICPILMEKLNRNSRRGITYNYVISSRLGRNTYKEQYAFLYKEKLVSVKRSYHYHDYQDGDADVFSREPFVVWFQSPHTAVKDFVIIPLHTTPETSVKEIDELVEVYTDVKHRWKAENFIFMGDFNAGCSYVPKKAWKNIRLRTDPRFVWLIGDQEDTTVKKSTNCAYDRIVLRGQEIVSSVVPKSNSVFDFQKAYKLTEEEALDVSDHFPVEFKLQSSRAFTNSKKSVTLRKKTKSKRS
modifications: PEG-maleimide conjugate
notes: Purified Dnase1L3 conjugated to PEG (PEG-maleimide); band shifts from 36 kDa to 41 kDa
B2: Dnase1: DNase I protein of the background art; poorly digests chromatin DNA (protein, UniProt P24855 23-282, looked up)
Deoxyribonuclease-1: LKIAAFNIQTFGETKMSNATLVSYIVQILSRYDIALVQEVRDSHLTAVGKLLDNLNQDAPDTYHYVVSEPLGRNSYKERYLFVYRPDQVSAVDSYYYDDGCEPCGNDTFNREPAIVRFFSRFTEVREFAIVPLHAAPGDAVAEIDALYDVYLDVQEKWGLEDVMLMGDFNAGCSYVRPSQWSSIRLWTSPTFQWLIPDSADTTATPTHCAYDRIVVAGMLLRGAVVPDSALPFNFQAAYGLSDQLAQAISDHYPVEVMLK

Assays:
plasmid DNA = assay: Plasmid DNA degradation by Dnase1L3 (agarose gel); format: biochemical; conditions: increasing dilutions with 200 ng plasmid DNA, 30 min at 37° C., 200 mM Tris pH 7.4, 50 mM MgCl2, 20 mM CaCl2; 1% agarose gel
Source text: FIGS. 1A to 1E show the results from the modified Dnase1L3 of the present invention. […] (FIG. 1A) Dnase1L3 was affinity purified with Nickel NTA agarose, then cleaved with Tobacco Etch Virus protease TEV protease. Cleaved Dnase1L3 was further purified by anion exchange and then by size exclusion chromatography. Fractions from the final size exclusion purification were resolved by SDS-PAGE and Coomassie stained. Fractions 7-9 show purified Dnase1L3 at the expected 36 kDa size. Molecular weight in kDa is shown. (FIG. 1B) The indicated amounts of purified Dnase1L3 were resolved by SDS-PAGE, transferred to nitrocellulose and probed with anti-Dnase1L3 primary antibody, anti-rabbit HRP secondary antibody and developed with enhanced chemiluminescence. (FIG. 1C) Recombinant, […] mM Tris pH 7.4, 50 mM MgCl2, 20 mM CaCl2 with or without 100 μM Dnase1L3 inhibitors fmoc-D-cyclohexylalanine (FCA) or Pontacyl Violet 6R (PV). Remaining plasmid DNA resolved on a 1% agarose gel. # indicates non-degraded DNA (i.e. supercoiled, nicked and linear DNA). The absence of DNA indicates degradation. (FIG. 1D) Purified Dnase1L3 was conjugated to PEG. Unconjugated Dnase1L3, PEGylated Dnase1L3 (PEG-D1L3), or free PEG were resolved by SDS-PAGE and visualized with Coomassie Blue. The 36 kDa band has increased in size to 41 kDa, indicating successful PEGylation. Molecular weight in kDa is shown. […]

[1] = test system: DNA present as chromatin or apoptotic bodies; conditions: background, Sisirak et al 2016, Napirei et al 2009, Wilber et al 2002; cited from earlier work

Molecule | endonuclease activity (degradation of plasmid DNA) (plasmid DNA) | digestion of DNA present as chromatin or apoptotic bodies [1]
B1 | potent endonuclease | –
B2 | – | poorly digests
